{"source": "paper PMC3774380", "target": "L-glucagon (natural) (human) (UniProt P01275)", "sequence (P01275 53-81)": "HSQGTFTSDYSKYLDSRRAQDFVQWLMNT", "assay": "competitive pull-down", "conditions": "all L-nucleotides, Selection buffer: 20 mM Tris pH 7.4, 150 mM NaCl, 5 mM KCl, 1 mM MgCl2, 1 mM CaCl2, 0.1% Tween 20, 0.1% CHAPS, 100 ug/ml HSA, 10 ug/ml yeast RNA, 37 C …", "data": [{"sequence": "GCAGTGGGGAAATGGGAGGGCTAGGTGGAAGGAATCTGAGCTACTGC [L-257-E1-001-6xR]", "values": [{"measurement": "Kd", "setting": "ribonucleotides at positions 9, 15, 18, 19, 29, 30, rest deoxy", "result": 6.4, "unit": "nM"}]}, {"sequence": "GCAGTGGGGAAATGGGAGGGCTAGGTGGAAGGAATCTGAGCTACTGC [L-257-E1-001-R15/29/30]", "values": [{"measurement": "Kd", "setting": "ribonucleotides at positions 15, 29, 30, rest deoxy", "result": 20, "unit": "nM"}]}, {"sequence": "GCGGGAAATGGGAGGGCTAGGTGGAAGGAATCTGAGCGC [L-257-E1-030-6xR]", "values": [{"measurement": "Kd", "setting": "ribonucleotides at positions 5, 11, 14, 15, 25, 26, rest deoxy", "result": 6.3, "unit": "nM"}]}]}
